Assays:
[1] = biological target: NMDA receptor subunit GluN2A (rat (endogenous in primary cortical neurons)) (UniProt Q00959); experiment: co-IP; precleared lysates (700 µg) of rat primary cortical neurons incubated overnight with protein G-agarose carrying anti-GluN2A or anti-GluN2B; blots for STIM1 and STIM2; control neurons and neurons treated with 50 µM NMDA and 100 µM glycine for 15 min; bands normalised to the precipitated subunit
[2] = biological target: NMDA receptor subunit GluN2B (rat (endogenous in primary cortical neurons)) (UniProt Q00960); experiment: as above
Chain of UniProt Q00960 (Q00960 27-1482): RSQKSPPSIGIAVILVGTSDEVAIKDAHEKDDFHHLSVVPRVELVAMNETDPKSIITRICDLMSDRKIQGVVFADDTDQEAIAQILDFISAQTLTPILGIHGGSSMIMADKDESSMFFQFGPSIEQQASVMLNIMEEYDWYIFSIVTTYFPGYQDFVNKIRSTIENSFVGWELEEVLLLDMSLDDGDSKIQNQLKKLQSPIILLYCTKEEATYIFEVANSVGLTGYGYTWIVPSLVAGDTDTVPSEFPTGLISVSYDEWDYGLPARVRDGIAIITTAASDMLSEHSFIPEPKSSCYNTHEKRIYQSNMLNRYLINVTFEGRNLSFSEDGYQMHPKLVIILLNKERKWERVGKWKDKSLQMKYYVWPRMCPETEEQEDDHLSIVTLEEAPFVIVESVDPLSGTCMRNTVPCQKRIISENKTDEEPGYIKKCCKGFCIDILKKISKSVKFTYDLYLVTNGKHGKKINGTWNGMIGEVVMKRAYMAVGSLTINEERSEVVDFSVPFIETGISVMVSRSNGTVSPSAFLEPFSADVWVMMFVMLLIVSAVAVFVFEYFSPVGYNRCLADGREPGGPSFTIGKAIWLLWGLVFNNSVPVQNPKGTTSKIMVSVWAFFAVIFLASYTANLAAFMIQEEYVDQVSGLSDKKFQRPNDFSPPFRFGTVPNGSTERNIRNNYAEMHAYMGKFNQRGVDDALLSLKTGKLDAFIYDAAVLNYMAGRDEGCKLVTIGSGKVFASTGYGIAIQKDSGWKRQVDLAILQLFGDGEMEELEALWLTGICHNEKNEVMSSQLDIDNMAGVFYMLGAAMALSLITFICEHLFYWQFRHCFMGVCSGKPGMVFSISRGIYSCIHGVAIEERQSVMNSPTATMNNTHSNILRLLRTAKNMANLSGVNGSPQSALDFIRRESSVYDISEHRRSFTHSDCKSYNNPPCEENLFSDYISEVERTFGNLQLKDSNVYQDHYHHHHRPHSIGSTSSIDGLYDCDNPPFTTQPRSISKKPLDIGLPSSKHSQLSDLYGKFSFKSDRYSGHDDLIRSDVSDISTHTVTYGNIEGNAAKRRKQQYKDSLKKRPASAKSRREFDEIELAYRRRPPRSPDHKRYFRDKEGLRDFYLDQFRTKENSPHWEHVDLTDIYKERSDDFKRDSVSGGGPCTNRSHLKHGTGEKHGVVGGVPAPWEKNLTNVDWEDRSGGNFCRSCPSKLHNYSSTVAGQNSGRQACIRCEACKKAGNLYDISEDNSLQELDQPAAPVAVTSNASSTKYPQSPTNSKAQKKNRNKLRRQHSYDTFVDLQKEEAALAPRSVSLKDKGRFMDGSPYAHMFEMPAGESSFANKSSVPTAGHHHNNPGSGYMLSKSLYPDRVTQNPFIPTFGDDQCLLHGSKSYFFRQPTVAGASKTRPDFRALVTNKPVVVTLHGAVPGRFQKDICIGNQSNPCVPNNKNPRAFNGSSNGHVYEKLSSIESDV

Chain of UniProt Q00959 (Q00959 23-1464): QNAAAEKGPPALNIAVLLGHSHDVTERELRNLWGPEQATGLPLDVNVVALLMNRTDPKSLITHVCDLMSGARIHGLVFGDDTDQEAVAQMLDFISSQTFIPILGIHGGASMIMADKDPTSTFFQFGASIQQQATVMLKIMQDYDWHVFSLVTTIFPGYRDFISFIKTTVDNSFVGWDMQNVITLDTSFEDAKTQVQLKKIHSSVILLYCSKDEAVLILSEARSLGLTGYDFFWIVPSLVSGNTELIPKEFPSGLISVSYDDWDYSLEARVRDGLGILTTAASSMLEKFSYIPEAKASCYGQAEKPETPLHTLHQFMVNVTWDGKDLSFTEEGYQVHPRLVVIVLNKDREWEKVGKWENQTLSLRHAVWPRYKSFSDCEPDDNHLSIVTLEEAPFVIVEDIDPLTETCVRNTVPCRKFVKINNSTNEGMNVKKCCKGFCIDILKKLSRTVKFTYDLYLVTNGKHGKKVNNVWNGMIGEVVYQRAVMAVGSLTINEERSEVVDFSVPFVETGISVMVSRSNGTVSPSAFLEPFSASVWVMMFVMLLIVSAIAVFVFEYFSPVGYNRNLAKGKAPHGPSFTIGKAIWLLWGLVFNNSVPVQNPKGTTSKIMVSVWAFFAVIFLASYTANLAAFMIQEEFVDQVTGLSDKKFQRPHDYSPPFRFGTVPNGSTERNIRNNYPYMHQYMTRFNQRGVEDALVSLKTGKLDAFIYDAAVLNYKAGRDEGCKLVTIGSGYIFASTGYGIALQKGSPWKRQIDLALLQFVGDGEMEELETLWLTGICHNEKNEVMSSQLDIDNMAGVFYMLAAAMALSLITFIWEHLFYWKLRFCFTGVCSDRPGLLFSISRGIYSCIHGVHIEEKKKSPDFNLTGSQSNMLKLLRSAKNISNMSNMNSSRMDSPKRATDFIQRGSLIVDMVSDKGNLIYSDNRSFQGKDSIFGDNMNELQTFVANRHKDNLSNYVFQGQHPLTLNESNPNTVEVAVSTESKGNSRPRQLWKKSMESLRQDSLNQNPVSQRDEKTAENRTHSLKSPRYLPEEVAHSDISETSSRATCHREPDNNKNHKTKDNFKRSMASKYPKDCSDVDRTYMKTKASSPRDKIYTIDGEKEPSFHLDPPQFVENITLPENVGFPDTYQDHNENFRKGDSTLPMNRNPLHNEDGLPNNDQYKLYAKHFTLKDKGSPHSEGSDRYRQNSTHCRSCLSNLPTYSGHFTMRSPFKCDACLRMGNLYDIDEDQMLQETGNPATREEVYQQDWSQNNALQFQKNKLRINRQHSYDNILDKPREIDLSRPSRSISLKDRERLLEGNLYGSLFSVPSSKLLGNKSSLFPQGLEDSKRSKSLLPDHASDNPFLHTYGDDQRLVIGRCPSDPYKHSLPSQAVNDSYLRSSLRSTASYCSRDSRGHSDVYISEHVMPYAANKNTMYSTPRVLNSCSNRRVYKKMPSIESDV

co-IP band after NMDA and glycine treatment, percent of control neurons [1]: 340%
co-IP band after NMDA and glycine treatment, percent of control neurons [2]: 204%
Substance: stromal interaction molecule 2 (STIM2) (natural protein)
